Source: patent US20230242675A1 (SHANGHAI EPIMAB BIOTHERAPEUTICS, published 2023)

How the values were obtained:
[1] = target: T1, cynomolgus (cyno) PD-L1/His fusion protein (cynomolgus, UniProt G7PSE7 19-239); experiment: BLI Octet RED96, cyno PD-L1
T1 construct: also called cynomolgus PD-L1; not shown: His tag

[2] = target: T2, human PD-L1 on the cell surface (CHO-K1 cells stably expressing human PD-L1) (human, UniProt Q9NZQ7 19-290); experiment: FACS on CHO-K1/hPD-L1 cells
T2 construct: whole, on cells; Also used here for PD-L1 on the monocyte-derived dendritic cells of the MLR assay (functional rows); also called CHO-K1/PD-L1; CHOK1-PD-L1
Procedure: The ability of the purified antibodies to bind to cell membrane human PD-L1 was determined by FACS analysis. CHO-K1 cells stably expressing human PD-L1 (CHO-K1/hPD-L1 cells) were resuspended in PBS containing 2% FBS (FACS buffer) and seeded at 1×10⁵ cells/well into 96-well round-bottomed plates (Corning; Cat. No. 3799). […] The assay plate was then read on a flow cytometer. The data were processed by GraphPad software, and EC50 values were calculated. The EC50 for binding activity according to this FACS analysis is the concentration at which of an antibody induces a response halfway between the baseline and maximum and reflects the binding ability of the antibody.

[3] = target: T1, cynomolgus (cyno) PD-L1/His fusion …; experiment: ELISA, coated cyno PD-L1 protein
Procedure: (§1) The ability of an antibody to bind human or cynomolgus (cyno) PD-L1 (binding activity) was determined by ELISA. ELISA plates were incubated overnight at 4° C. with 50 μl of the human or cyno PD-L1 protein described above diluted in PBS buffer, pH 7.4, at 1 μg/ml. Plates were washed four times in washing buffer (PBS containing 0.05% Tween 20) and blocked for 1 hour at 37° C. with 200 μl per well of blocking buffer (1% BSA in PBS containing 0.05% Tween 20). After blocking buffer was removed, diluted purified antibodies (200 nM and 1:5 serial dilutions to provide 7 concentrations of each antibody) were added to the wells at 100 μl per well and incubated at 37° C. for 1 hour. The wells were washed four times with washing buffer, and anti-human IgG (Fc-specific) HRP-conjugated antibody (Sigma), diluted 1:10,000, was added to the wells at 100 μl per well. The plates were incubated for 1 hour at 37° C. and washed four times in washing buffer. 100 μl of tetramethylbenzidine (TMB) chromogenic solution were added per well. Following color development, the reaction was stopped with 1 N HCl, and absorbance at 450 nm was measured on a VARIOSKAN™ LUX multimode microplate reader (ThermoFisher Scientific, Vataa, Finland). The data were processed by GraphPad software, and EC50 values were calculated. The EC50 for binding activity according to this ELSA is the concentration at which an antibody induces a response halfway between the baseline and maximum and indicates the binding ability of the antibody.

[4] = target: T3, human PD-L1/His fusion protein (human, UniProt Q9NZQ7 19-239); experiment: BLI off-rate; test group 1 (reference itself)
Procedure: (§2) Briefly, antibodies were characterized for affinities and binding kinetics by Octet®RED96 biolayer interferometry (Pall ForteBio LLC). Antibodies were captured by Anti-hIgG Fc Capture (AHC) Biosensors (Pall) at a concentration of 100 nM for 30 seconds. Sensors were then dipped into running buffer (1×pH 7.2 PBS, 0.05% Tween 20, 0.1% BSA) for 60 seconds to check baseline. Binding was measured by dipping sensors into a single concentration of recombinant human PD-L1/His fusion protein (Novoprotein). Dissociation was followed by dipping sensors into running buffer for 1200 seconds. The association and dissociation curves were fitted to a 1:1 Langmuir binding model using ForteBio Data Analysis software (Pall). […] The off-rate ratio serves as a data normalization. Accordingly, in each test group, the off-rate ratios of the humanized antibodies can be compared with that of the chimeric antibody, and the off-rate ratios of each of the humanized antibodies can be compared to one another within all test groups.

[5] = target: T3, human PD-L1/His fusion protein; experiment: BLI off-rate; test group 2 (reference itself)
Procedure: as §2

[6] = target: T3, human PD-L1/His fusion protein; experiment: BLI off-rate; test group 3 (reference itself)
Procedure: as §2

[7] = target: T3, human PD-L1/His fusion protein; experiment: BLI off-rate; test group 4 (reference itself)
Procedure: as §2

[8] = target: T3, human PD-L1/His fusion protein; experiment: ELISA, coated human PD-L1 protein, anti-human Fc detection
Procedure: as §1

[9] = target: human PD-L1/Fc Fusion Protein (human); experiment: RBA ELISA: coated PD-L1/Fc, competitor biotinylated human PD-1
Procedure: ELISA plates were coated with 100 μl of 1 μg/ml of human PD-L1/Fc in PBS and incubated overnight at 4° C. Plates were washed four times in washing buffer (PBS containing 0.05% Tween 20) and blocked for 1 hour at 37° C. with 200 μl per well of blocking buffer (1% BSA in PBS containing 0.05% Tween 20). […] A human IgG was included as negative control. The signal was developed by adding streptavidin-HRP (Cat. No. S2468, Sigma) (100 μl/well at 1:5000 dilution) and incubating for 40 minutes at 37° C., followed by washing four times in washing buffer. Then, 100 μl of TMB solution were added per well. Following color development, the reaction was stopped with 1 N HCl, and absorbance at 450 nm was measured. The data were processed by GraphPad software, and IC50 values were calculated. […] The signal reduction induced by antibody samples was normalized to inhibition percentage, where the negative control was 0% inhibition, and the absolute value of signal reduction of each antibody divided by the signal of the negative control equals the percent inhibition by the antibody.

[10] = target: T3, human PD-L1/His fusion protein; experiment: BLI Octet RED96, antibody on AHC sensor, PD-L1/His in solution
Procedure: Binding of antibodies to PD-L1 was also assessed using biolayer interferometry (BLI) using an Octet® RED96 sensor device (Pall ForteBio LLC). Antibodies were captured by anti-hIgG Fc capture (AHC) Biosensors (Pall) at a concentration of 100 nM for 30 seconds. Sensors were then dipped into running buffer (1×pH7.2 PBS, 0.05% Tween 20, 0.1% BSA) for 60 seconds to check the baseline. Binding was measured by dipping sensors into a series of diluted concentrations of recombinant human PD-L1/His fusion protein. Dissociation was followed by dipping sensors into running buffer for 1200 seconds. The association and dissociation curves were fitted to a 1:1 Langmuir binding model using ForteBio Data Analysis software (Pall). The equilibrium dissociation constant KD (molarity) of the reaction between antibodies and related target proteins was then calculated from the kinetic rate constants using the formula KD=koff/kon.

[11] = target: T3, human PD-L1/His fusion protein; experiment: BLI Octet RED96, antibody on AHC sensor, single conc. PD-L1/His; test group 1
Procedure: as §2

[12] = target: T3, human PD-L1/His fusion protein; experiment: BLI Octet RED96, antibody on AHC sensor, single conc. PD-L1/His; test group 2
Procedure: as §2

[13] = target: T3, human PD-L1/His fusion protein; experiment: BLI Octet RED96, antibody on AHC sensor, single conc. PD-L1/His; test group 3
Procedure: as §2

[14] = target: T3, human PD-L1/His fusion protein; experiment: BLI Octet RED96, antibody on AHC sensor, single conc. PD-L1/His; test group 4
Procedure: as §2

T3 sequence (Q9NZQ7 19-239 limits assumed): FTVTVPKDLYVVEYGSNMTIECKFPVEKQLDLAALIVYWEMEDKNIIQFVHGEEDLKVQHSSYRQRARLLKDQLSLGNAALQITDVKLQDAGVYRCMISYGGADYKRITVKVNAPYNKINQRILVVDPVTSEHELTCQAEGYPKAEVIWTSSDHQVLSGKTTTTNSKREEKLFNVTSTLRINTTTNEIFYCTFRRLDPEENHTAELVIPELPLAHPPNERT
T1 sequence (G7PSE7 entry or part of it): as the sequence (Q9NZQ7 19-239 limits assumed) above, with A33T, A34S, S62N, R68Q, Q82R, F173L, T185A, T192I, H215L counted along it
Sequence of human PD-L1/Fc Fusion Protein (human) (chain, as listed by the source limits assumed): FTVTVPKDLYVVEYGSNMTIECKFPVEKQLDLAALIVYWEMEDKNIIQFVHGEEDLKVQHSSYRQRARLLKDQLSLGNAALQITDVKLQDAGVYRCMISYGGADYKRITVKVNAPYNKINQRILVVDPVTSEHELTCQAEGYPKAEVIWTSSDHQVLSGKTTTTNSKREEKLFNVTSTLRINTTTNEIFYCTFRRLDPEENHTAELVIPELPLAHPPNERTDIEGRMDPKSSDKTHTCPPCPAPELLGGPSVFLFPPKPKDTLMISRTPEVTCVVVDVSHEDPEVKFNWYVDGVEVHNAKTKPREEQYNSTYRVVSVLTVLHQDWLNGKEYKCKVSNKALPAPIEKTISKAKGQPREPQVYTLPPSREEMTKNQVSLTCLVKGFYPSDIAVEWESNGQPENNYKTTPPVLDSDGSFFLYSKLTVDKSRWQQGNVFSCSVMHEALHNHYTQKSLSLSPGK
T2 sequence (Q9NZQ7 19-290): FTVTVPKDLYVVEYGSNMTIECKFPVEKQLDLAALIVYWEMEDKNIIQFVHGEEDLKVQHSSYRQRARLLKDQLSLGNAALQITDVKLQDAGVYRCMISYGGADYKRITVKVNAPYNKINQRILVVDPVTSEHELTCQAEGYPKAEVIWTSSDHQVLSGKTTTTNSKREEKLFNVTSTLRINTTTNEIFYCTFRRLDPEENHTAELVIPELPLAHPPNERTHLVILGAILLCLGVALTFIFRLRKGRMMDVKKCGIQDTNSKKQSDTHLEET

B1: EM0005-mAb90c (antibody, human IgG1, kappa, V domains shown)
VH: QVQLKQSGAELVRPGSSVKMSCKTSGYTFTSHSINWVKQRPGQGLEWIGYMYIGNGYTEYNEKFKGKATLTSDTSSTTAYMQLSSLTSEDSAIYFCAKITPVVAPYVMDYWGQGTSVTVSS
VL: DIVMTQTHKFMSTSVGDRVSITCKASQDVGTAVAWYQQKPGQSPKLLIYWASTRHTGVPDRFTGSGSGTDFTLTISNVQSEDLADYFCQQYSSYPYTFGGGTKLELKR
notes: Chimeric full-length IgG1; also called EM0005-90c
[1]
  Kd: 0.837 nM
[2]
  EC50: 0.21 nM
[3]
  EC50: 0.12 nM
[4]
  Off-Rate Ratio to that of EM0005-90c: 100%
[5]
  Off-Rate Ratio to that of EM0005-90c: 100%
[6]
  Off-Rate Ratio to that of EM0005-90c: 100%
[7]
  Off-Rate Ratio to that of EM0005-90c: 100%
[8]
  EC50: 0.15 nM
[9]
  IC50: 1.05 nM
  Inhibition (percent): 94.4%
[10]
  Kd: 0.681 nM
[11]
  koff: 0.000253 s⁻¹
[12]
  koff: 0.000342 s⁻¹
[13]
  koff: 0.000382 s⁻¹
[14]
  koff: 0.00225 s⁻¹
